Experimental data published in patent US6100053A, “Microbial transglutaminases, their production and use” (priority 1994, dated 2000).

Target: α-casein

Row | Substance | Units/ml (putrescine assay)
1 | transglutaminase preparation (culture broth) of Fusarium merismoides (pool or library) | 0.16 Units/ml
2 | transglutaminase preparation (culture broth) of Fusarium redolens (pool or library) | 0.16 Units/ml
3 | transglutaminase preparation (culture broth) of Beauveria cylindrospora (pool or library) | 0.24 Units/ml
4 | transglutaminase preparation (culture broth) of Fusarium decemcellulare (pool or library) | 0.1 Units/ml
5 | transglutaminase preparation (culture broth) of Preussia isomera (pool or library) | 0.22 Units/ml
6 | transglutaminase preparation (culture broth) of Hymenochaete corticola (pool or library) | 1.31 Units/ml
7 | transglutaminase preparation (culture broth) of Fusarium flocciferum (pool or library) | 0.15 Units/ml
8 | transglutaminase preparation (culture broth) of Stropharia coerulea (pool or library) | 0.16 Units/ml
9 | transglutaminase preparation (culture broth) of Neosartorya quadricineta (pool or library) | 0.22 Units/ml
10 | transglutaminase preparation (culture broth) of Nodulisporium sp. (pool or library) | 1.2 Units/ml

The next lines start with the values.

Row | Units/ml (putrescine assay) | Substance
11 | 0.12 Units/ml | transglutaminase preparation (culture broth) of Aspergillus heteromorphus (pool or library)
12 | 0.15 Units/ml | transglutaminase preparation (culture broth) of Agaricus sp. (pool or library)
13 | 0.18 Units/ml | transglutaminase preparation (culture broth) of Auricularia polytricha (pool or library)
14 | 0.23 Units/ml | transglutaminase preparation (culture broth) of Aspergillus foetidus (pool or library)
15 | 0.22 Units/ml | transglutaminase preparation (culture broth) of Pleurotus dryinus (pool or library)
16 | 1.58 Units/ml | transglutaminase preparation (culture broth) of Cercospora beticola (pool or library)
17 | 0.14 Units/ml | transglutaminase preparation (culture broth) of Pycnoporus cinnabarinus (pool or library)
18 | 0.23 Units/ml | transglutaminase preparation (culture broth) of Tricholoma myomyces (pool or library)
19 | 0.25 Units/ml | transglutaminase preparation (culture broth) of Beauveria calendonica (pool or library)
20 | 0.24 Units/ml | transglutaminase preparation (culture broth) of Byssochlamys fulva (pool or library)
21 | 0.2 Units/ml | transglutaminase preparation (culture broth) of Sporormiella minima (pool or library)
22 | 0.28 Units/ml | transglutaminase preparation (culture broth) of Xylaria sp (pool or library)
23 | 0.41 Units/ml | transglutaminase preparation (culture broth) of Warcupiella spinulosa (pool or library)
24 | 0.17 Units/ml | transglutaminase preparation (culture broth) of Hygrophoropsis aurantiaca (pool or library)
25 | 0.28 Units/ml | transglutaminase preparation (culture broth) of Curvularia borreiae (pool or library)
